Here are results for one molecule from patent publication US20070066522A1 (MICHIGAN STATE UNIVERSITY, published 2007).

This test deals with T1, c-Cbl (endogenous, in PH3MT cell lysates) (human, UniProt P22681 1-906).
T1 construct: also called c-Cbl E3 ubiquitin ligase; CB1
As to the kind of experiment: method not described; Ras-transformed cells.

B1: Sprouty2 (endogenous, in PH3MT human fibroblast lysates) (other)
chain: MEARAQSGNGSQPLLQTPRDGGRQRGEPDPRDALTQQVHVLSLDQIRAIRNTNEYTEGPTVVPRPGLKPAPRPSTQHKHERLHGLPEHRQPPRLQHSQVHSSARAPLSRSISTVSSGSRSSTRTSTSSSSSEQRLLGSSFSSGPVADGIIRVQPKSELKPGELKPLSKEDLGLHAYRCEDCGKCKCKECTYPRPLPSDWICDKQCLCSAQNVIDYGTCVCCVKGLFYHCSNDDEDNCADNPCSCSQSHCCTRWSAMGVMSLFLPCLWCYLPAKGCLKLCQGCYDRVNRPGCRCKNSNTVCCKVPTVPPRNFEKPT
notes: Endogenous protein of the H-Ras-transformed human fibroblast strain PH3MT; also called Spry2; human Sprouty-2
Consider B1, for which the binding result is reported as “binds”.
